Measured values as given in US20090233993A1, “COMPOSITIONS AND METHODS FOR INHIBITING GSK3 ACTIVITY AND USES THEREOF” (Burnham Institute for Medical Research, priority 2008, published 2009).
Entries after “also recorded” stand apart in the source; their conditions may differ.

Tests used:
γ-secretase = γ-secretase cleavage on Notch (NICD generation) and nicastrin level; assay type: cell-based, mouse
From the text: (§1) The levels of the recombinant Notch (NotchΔE with Myc-tag) and the γ-secretase cleaved Notch fragment (NICD) were quantified by Western blotting using myc antibody and an antibody specific to processed Notch followed by densitometry. […] The results represent at least four independent experiments.
N2a cells were transfected with Myc-tagged Notch1 NΔE construct lacking the ectodomain, which allows ligand-independent processing by γ-secretase to produce NICD (Schroeter et al., 1998). NICD generation was analyzed by immunoblot with an antibody specifically recognizing the cleaved Notch product NICD (Cell Signaling Technology).
Cleavage of Notch, another important γ-secretase substrate (Kopan and Goate, 2000), was not altered by FG01 overexpression. N2a cells were transfected with Myc-tagged Notch1 NΔE construct. After equal splitting, cells were transfected with control vector (Con) or FG01. Cell lysates were subjected to SDS-PAGE and Western blot with the Myc antibody (recognizing both exogenous FG01 and Notch NΔE) and with an NICD-specific antibody. Protein levels of nicastrin, an important component of the γ-secretase complex, were also not affected by FG01 overexpression.

GSK-3α/β = assay: phospho-GSK-3α (Ser21)/GSK-3β (Ser9) Western blot in mouse N2a/N2aSwe cells; assay type: cell-based
From the text: The accumulation of βCTF can also be attributed to decrease in γ-secretase cleavage. However, the Notch cleavage was not altered by overexpression of the recombinant FG01 (FIG. 9A). […] Thus, the activities of GSK-3α/β were examined with or without overexpressing FG01. First, the levels of phospho-GSK3α at Ser21 and GSK-3β at Ser9 (the inactivated forms of GSK3) were quantified using the specific antibodies.
as §1
The levels of total GSK-3 were used as normalization factors.
Although the possibility that FG01 may modulate substrate specificity or accessibility to γ-secretase can not be excluded, it is equally possible that FG01 regulates other proteins/pathways functioning in APP processing and Aβ generation. […] Thus, the activities of GSK-3α/β were studied in the presence or absence of FG01 overexpression by examining levels of phospho-GSK-3α (Ser 21) and phospho-GSK-3β (Ser 9) (which represent inactivated forms of GSK-3) and by in vitro kinase assays.

tau = tau phosphorylation (Thr205, PHF-1) in N2aSwe cells cotransfected with human tau T40; assay type: cell-based
Experimental: Since GSK-3 can phosphorylate tau at multiple sites, it was determined whether FG01 can affect tau phosphorylation by GSK-3. The human longest tau splicing variant T40 was cotransfected with FG01 or expression vector (control) into N2aSwe cells, and the tau phosphorylation examined at Thr205 and PHF-1 tauepitope (Ser396 and Ser404), which are GSK-3 phosphorylation targets and major paired helical filament (PHF) tau sites found in NFTs. […] In addition, little change was found in CDK5 protein level and its in vitro activity upon FG01 overexpression.
The human tau T40 was co-transfected with either FG01 or the expression vector into N2aSwe cells. The phospho-tau at Thr205 and PHF-1 and total tau proteins in the transfected cells were detected by Western blots (left). The levels of phospho-tau at the examined sites were quantified by densitometry and normalized to the total levels (right).
GSK-3 is a major kinase that phosphorylates tau in AD (Flaherty et al., 2000). […] N2aSwe cells were cotransfected with the human tau splice variant T40 and with FG01 (or control vectors), and examined tau phosphorylation at the threonine 205 site (Thr205) and the PHF-1 tau epitope sites (serine 396 and serine 404), which are GSK-3 phosphorylation targets, and at the major paired helical filament (PHF) sites found in NFTs. […] Protein levels and activity of CDK5, another kinase mediating tau phosphorylation in AD (Flaherty et al., 2000), was analyzed following FG01 overexpression. […] N2a cells were transfected with FG01 or a control vector (Con). Equal cell lysate proteins were used for assaying in vitro CDK5 activity.

[1] = human tau T40 cotransfected with FG01

B1: FG01: 141 amino acid transmembrane protein encoded by mouse retrogene fg01 (SEQ ID NO:2); expressed from transfected vector or transgene (protein)
chain: MQSQQRNIGYFNHLKADSRNITYSMTFSTKSSNQNFIIFLNEVQAAIIGHERCDLLPVLNELHPDALPDGRIWLFGLNPYFFQHNSLCMRGTPKRIGLQGCAQVGFLVLFVMPLLIPSVTAELPGSSETTTLAHLAGATGP
modifications: Myc and His6 tags; homo sapien
notes: expressed from transfected vector or transgene
protein levels of nicastrin (γ-secretase; FG01 overexpression in N2a cells): not affected | Notch cleavage (γ-secretase; Notch ΔE cotransfected with FG01): not altered | GSK-3α/β activity in the presence of lithium (GSK-3α/β; FG01-transfected N2aSwe cells, 5 mM LiCl 4 hrs): could not further reduce | GSK-3 activities (inactivated phospho-GSK-3β) (GSK-3α/β; FG01 overexpression, mouse N2a cells, Western blot): decreases | phospho-GSK-3α (Ser21) and phospho-GSK-3β (Ser9) levels (inactivated forms) (GSK-3α/β; FG01 overexpression, mouse N2aSwe cells): more GSK-3α/β were phosphorylated; also recorded: more highly phosphorylated | total tau levels (tau; [1]): without affecting | unphosphorylated tau levels (tau; [1]): increased | tau phosphorylation at GSK-3 target sites (tau; human tau T40 cotransfected with FG01 in N2aSwe cells): significantly decreased | decrease of tau phosphorylation at Thr205 and PHF-1 epitope (Ser396, Ser404) (tau; human tau T40 cotransfected with FG01 in N2aSwe cells, densitometry): ~60%
